Results as given in patent US20210071114.

T1: FRET substrate GGGLG
T1 chain: GGGLG

T2: recombinant loricrin fused with a tag sequence (Recombinant Human Loricrin Protein; Abcam, ab114261)
T2 chain: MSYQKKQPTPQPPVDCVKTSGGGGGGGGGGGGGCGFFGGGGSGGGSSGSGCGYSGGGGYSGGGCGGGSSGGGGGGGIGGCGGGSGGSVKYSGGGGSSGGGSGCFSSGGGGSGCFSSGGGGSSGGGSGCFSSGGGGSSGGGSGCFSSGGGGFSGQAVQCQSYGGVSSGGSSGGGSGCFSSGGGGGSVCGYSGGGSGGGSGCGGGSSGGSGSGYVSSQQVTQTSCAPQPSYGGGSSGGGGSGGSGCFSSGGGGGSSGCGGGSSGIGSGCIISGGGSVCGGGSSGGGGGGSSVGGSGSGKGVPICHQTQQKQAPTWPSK

T3: FRET substrate GGGSG
T3 chain: GGGSG

T4: FRET-GGGGG (FRET substrate having pentaglycine between Nma and Lys(Dnp))
T4 chain: GGGGG

T5: FRET substrate GGGFG
T5 chain: GGGFG

T6: keratin 10
T6 chain: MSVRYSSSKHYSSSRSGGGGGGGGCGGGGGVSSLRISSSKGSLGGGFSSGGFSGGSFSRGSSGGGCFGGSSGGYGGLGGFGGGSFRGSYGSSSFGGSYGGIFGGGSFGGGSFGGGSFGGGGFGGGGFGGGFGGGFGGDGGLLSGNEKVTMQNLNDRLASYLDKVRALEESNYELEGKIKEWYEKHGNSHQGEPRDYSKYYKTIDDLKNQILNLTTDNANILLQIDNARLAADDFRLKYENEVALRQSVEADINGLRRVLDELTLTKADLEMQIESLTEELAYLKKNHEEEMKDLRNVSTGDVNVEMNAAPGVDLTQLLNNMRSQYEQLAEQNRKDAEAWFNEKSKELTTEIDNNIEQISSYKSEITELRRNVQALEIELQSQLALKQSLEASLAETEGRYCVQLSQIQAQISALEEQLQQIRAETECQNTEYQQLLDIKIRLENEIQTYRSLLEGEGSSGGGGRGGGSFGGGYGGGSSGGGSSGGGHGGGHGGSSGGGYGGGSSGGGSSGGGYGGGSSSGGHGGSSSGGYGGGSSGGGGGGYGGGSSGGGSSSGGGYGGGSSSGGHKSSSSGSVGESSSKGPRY

T7: FRET substrate GGGYG
T7 chain: GGGYG

B1: ALE-1 glycylglycine endopeptidase (ALE-1) (protein)
chain: STKVDAPKVEQEAPAKADAPKVEQEAPAKADAPKVEQEAPAKVDAPKVEQEAPAKVDAPKVEQEAPAKADAPKVEQKRTFVREAAQSNHSASWLNNYKKGYGYGPYPLGINGGNHYGVDFFMNVGTPVRAISDGKIVEAGWTNYGGGNEIGLVENDGVHRQWYMHLSKFNVKVGDRVKAGQIIGWSGSTGYSTAPHLHFQRMTNSFSNNTAQDPMPFLKSAGYGSNSTSSSNNNGYKTNKYGTLYKSESASFTANTDIITRLTGPFRSMPQSGVLRKGLTIKYDEVMKQDGHVWVGYNTNSGKRVYLPVRTWNESTGELGPLWGTIK
B2: β-lytic metalloprotease (beta-lytic metallopeptidase; BLP) (protein)
chain: SPNGLLQFPFPRGASWHVGGAHTNTGSGNYPMSSLDMSRGGGWGSNQNGNWVSASAAGSFKRHSSCFAEIVHTGGWSTTYYHLMNIQYNTGANVSMNTAIANPANTQAQALCNGGQSTGPHEHWSLKQNGSFYHLNGTYLSGYRITATGSSYDTNCSRFYLTKNGQNYCYGYYVNPGPN
B3: Las A protein (LasA or LAS) (protein)
chain: APPSNLMQLPWRQGYSWQPNGAHSNTGSGYPYSSFDASYDWPRWGSATYSVVAAHAGTVRVLSRCQVRVTHPSGWATNYYHMDQIQVSNGQQVSADTKLGVYAGNINTALCEGGSSTGPHLHFSLLYNGAFVSLQGASFGPYRINVGTSNYDNDCRRYYFYNQSAGTTHCAFRPLYNPGLAL
B4: Aeromonas hydrophila proteinase (AhP) (protein)
chain: AGGQFQLPWRQGYSWKANGAHSHTGSGYPYSSIDVSYDWPGWGGATYTVTAANSGTVTVFSRCQVRVTATNGWATNYYHMSGISVRSGDYVAADTPIGTYASNRNEALCEGGSSTGPHLHFSLLYNGVFQSLQGQRLSSYAVNVGASNYDDNCNRFWLYNQRNGQRYCAWQPLYNNGID
B5: Alcalase (registered trade name) (SIGMA, P4860) (protein)
chain: AQTVPYGIPLIKADKVQAQGFKGANVKVAVLDTGIQASHPDLNVVGGASFVAGEAYNTDGNGHGTHVAGTVAALDNTTGVLGVAPSVSLYAVKVLNSSGSGSYSGIVSGIEWATTNGMDVINMSLGGASGSTAMKQAVDNAYAKGVVVVAAAGNSGSSGNTNTIGYPAKYDSVIAVGAVDSNSNRASFSSVGAELEVMAPGAGVYSTYPTNTYATLNGTSMASPHVAGAAALILSKHPNLSASQVRNRLSSTATYLGSSFYYGKGLINVEAAAQ
B6: proteinase K (Kanto Chemical Co., Inc., 34076-92) (protein)
chain: AAQTNAPWGLARISSTSPGTSTYYYDESAGQGSCVYVIDTGIEASHPEFEGRAQMVKTYYYSSRDGNGHGTHCAGTVGSRTYGVAKKTQLFGVKVLDDNGSGQYSTIIAGMDFVASDKNNRNCPKGVVASLSLGGGYSSSVNSAAARLQSSGVMVAVAAGNNNADARNYSPASEPSVCTVGASDRYDRRSSFSNYGSVLDIFGPGTSILSTWIGGSTRSISGTSMATPHVAGLAAYLMTLGKTTAASACRYIADTANKGDLSNIPFGTVNLLAYNNYQA
B7: Savinase (registered trade name) (SIGMA, P3111) (protein)
chain: AQSVPWGISRVQAPAAHNRGLTGSGVKVAVLDTGISTHPDLNIRGGASFVPGEPSTQDGNGHGTHVAGTIAALNNSIGVLGVAPSAELYAVKVLGASGSGSVSSIAQGLEWAGNNGMHVANLSLGSPSPSATLEQAVNSATSRGVLVVAASGNSGAGSISYPARYANAMAVGATDQNNNRASFSQYGAGLDIVAPGVNVQSTYPGSTYASLNGTSMATPHVAGAAALVKQKNPSWSNVQIRNHLKNTATSLGSTNLYGSGLVNAEAATR

Molecular target: T1, FRET substrate GGGLG

Row | Protein | Specific activity (U/mg)
1 | B1 | 0
2 | B2 | 3
3 | B3 | 10
4 | B4 | 31

Molecular target: T2, recombinant loricrin fused with a tag …

Row | Protein | Loricrin-degrading activity, SDS-PAGE and N-terminus sequencing of the remaining bands
5 | B2 | none of the N-terminus amino acid sequences of the bands were the sequence of loricrin, the bands were inferred to be derived from the tag sequence

Molecular target: T3, FRET substrate GGGSG

Row | Protein | Specific activity (U/mg)
6 | B1 | 0
7 | B2 | 231
8 | B3 | 19
9 | B4 | 10

Molecular target: T4, FRET-GGGGG (FRET substrate having …)

Row | Protein | Specific activity (U/mg)
10 | B1 | 3
11 | B2 | 186
12 | B3 | 19
13 | B4 | 53

molecular target: corneocyte-derived insoluble keratin (insoluble corneum fraction from the human neck)

Row | Protein | Degradation of corneocyte-derived insoluble keratin, SDS-PAGE (ruby staining) of the supernatant
14 | B2 | A band was detected between the molecular weight marker of 37,000 and the molecular weight marker of 50,000 for all the solutions containing BLP, LasA, and AhP
15 | B3 | A band was detected between the molecular weight marker of 37,000 and the molecular weight marker of 50,000 for all the solutions containing BLP, LasA, and AhP
16 | B4 | A band was detected between the molecular weight marker of 37,000 and the molecular weight marker of 50,000 for all the solutions containing BLP, LasA, and AhP

molecular target: keratin azure, which uses wool as a raw material (K8500)

Row | Protein | ΔA595 of the supernatant (property of degrading wool keratin)
17 | B5 | The absorbance of the samples containing Savinase (registered trade name), Alcalase (registered trade name), or proteinase K was increased compared with that of the samples containing BLP, LasA, or AhP
18 | B6 | The absorbance of the samples containing Savinase (registered trade name), Alcalase (registered trade name), or proteinase K was increased compared with that of the samples containing BLP, LasA, or AhP
19 | B7 | The absorbance of the samples containing Savinase (registered trade name), Alcalase (registered trade name), or proteinase K was increased compared with that of the samples containing BLP, LasA, or AhP
20 | B2 | The absorbance of the samples containing Savinase (registered trade name), Alcalase (registered trade name), or proteinase K was increased compared with that of the samples containing BLP, LasA, or AhP
21 | B3 | The absorbance of the samples containing Savinase (registered trade name), Alcalase (registered trade name), or proteinase K was increased compared with that of the samples containing BLP, LasA, or AhP
22 | B4 | The absorbance of the samples containing Savinase (registered trade name), Alcalase (registered trade name), or proteinase K was increased compared with that of the samples containing BLP, LasA, or AhP

Molecular target: T5, FRET substrate GGGFG

Row | Protein | Specific activity (U/mg)
23 | B1 | 0
24 | B2 | 83
25 | B3 | 19
26 | B4 | 51

molecular target: keratin solution obtained from human heel corneum

Row | Protein | Enzymatic degradation of keratin, SDS-PAGE (CBB staining)
27 | B5 | major bands were lost for the solutions containing Savinase (registered trade name), Alcalase (registered trade name), and proteinase K
28 | B6 | major bands were lost for the solutions containing Savinase (registered trade name), Alcalase (registered trade name), and proteinase K
29 | B1 | degradation of keratin was not observed for the solutions containing M23B subfamily enzymes ALE-1 and lysostaphin
30 | B7 | major bands were lost for the solutions containing Savinase (registered trade name), Alcalase (registered trade name), and proteinase K
31 | B2 | bands were detected between the molecular weight marker of 37,000 and the molecular weight marker of 50,000
32 | B3 | bands were detected between the molecular weight marker of 37,000 and the molecular weight marker of 50,000
33 | B4 | bands were detected between the molecular weight marker of 37,000 and the molecular weight marker of 50,000

Molecular target: T6, keratin 10

Row | Protein | Mass spectrometry of the SDS-PAGE band of the enzyme-treated solution | Cleavage of keratin 10, concluded from SDS-PAGE bands and the mass spectrometry of the BLP sample
34 | B2 | the proteins contained in this band region were fragments of keratin 10 | 
35 | B3 |  | BLP and other M23A subfamily enzymes cleaved the glycine-rich regions at both ends of the amino acid sequence of keratin 10
36 | B4 |  | BLP and other M23A subfamily enzymes cleaved the glycine-rich regions at both ends of the amino acid sequence of keratin 10

Molecular target: T7, FRET substrate GGGYG

Row | Protein | Specific activity (U/mg)
37 | B1 | 0
38 | B2 | 74
39 | B3 | 29
40 | B4 | 98
